We go through four proteins from paper PMC5122770, “Homodimerization of the Lymph Vessel Endothelial Receptor LYVE-1 through a Redox-labile Disulfide Is Critical for Hyaluronan Binding in Lymphatic Endothelium*^([image sbox.jpg])” (The Journal of Biological Chemistry, 2016).

Data set [1] concerns the molecule itself. Kind of data set: non-reducing SDS-PAGE with Western blot; whole cell lysate of primary HDLEC lysed without NEM; non-reducing; polyclonal LYVE-1 antibody. In general terms: A western blot detects proteins with antibodies after separation by electrophoresis.
Data set [2] deals with the molecule itself. Kind of data set: non-reducing SDS-PAGE with Western blot; cells lysed in LDS sample buffer with 5 mM NEM; non-reducing; polyclonal LYVE-1 antibody, densitometry (Licor Odyssey).
Data set [3] concerns the molecule itself. Kind of data set: non-reducing SDS-PAGE with Western blot; mouse liver and lung tissue, minced and lysed with 5 mM NEM; non-reducing.
Data set [4] concerns the molecule itself. Nature of the data set: non-reducing SDS-PAGE with Western blot; freshly resected mouse ear skin and lymph node, minced and lysed with 5 mM NEM; non-reducing.
Data set [5] concerns the molecule itself. Nature of the data set: non-reducing SDS-PAGE with Western blot; CHO cell-derived soluble protein dissolved in LDS sample buffer with NEM; non-reducing.

One may read the stoichiometry N as a count of units in the complex or per binding partner.

B1: LYVE-1 (native receptor in primary human dermal lymphatic endothelial cells) (receptor, human (endogenous in HDLEC), UniProt Q9Y5Y7 20-322, looked up)
chain: LVQGSLRAEELSIQVSCRIMGITLVSKKANQQLNFTEAKEACRLLGLSLAGKDQVETALKASFETCSYGWVGDGFVVISRISPNPKCGKNGVGVLIWKVPVSRQFAAYCYNSSDTWTNSCIPEIITTKDPIFNTQTATQTTEFIVSDSTYSVASPYSTIPAPTTTPPAPASTSIPRRKKLICVTEVFMETSTMSTETEPFVENKAAFKNEAAGFGGVPTALLVLALLFFGAAAGLGFCYVKRYVKAFPFTNKNQQKEMIETKVVKEEKANDSNPNEESKKTDKNPEESKSPSKTTVRCLEAEV
notes: LYVE-1, human, endogenous receptor of primary human dermal lymphatic endothelial cells; glycosylated; also called lymphatic vessel endothelial receptor LYVE-1; hLYVE-1; source: endogenous, primary HDLEC whole cell lysate
Consider B1, for which the “stoichiometry N” value in data set [1] was 2.

B2: full-length wild-type hLYVE-1 (in HEK 293T cells) (receptor, human, UniProt Q9Y5Y7 20-322, looked up)
chain: B1 chain
notes: also called wild-type receptor; source: HEK 293T, transfected, in lysate
For the protein B2, in data set [2], the “dimer:monomer ratio” value is 2 dimer:monomer.

B3: mouse LYVE-1 (native receptor in mouse tissues) (receptor, mouse (endogenous in mouse tissues), UniProt Q8BHC0 24-318, looked up)
chain: ADLVQDLSISTCRIMGVALVGRNKNPQMNFTEANEACKMLGLTLASRDQVESAQKSGFETCSYGWVGEQFSVIPRIFSNPRCGKNGKGVLIWNAPSSQKFKAYCHNSSDTWVNSCIPEIVTTFYPVLDTQTPATEFSVSSSAYLASSPDSTTPVSATTRAPPLTSMARKTKKICITEVYTEPITMATETEAFVASGAAFKNEAAGFGGVPTALLVLALLFFGAAAVLAVCYVKRYVKAFPFTTKNQQKEMIETKVVKEEKADDVNANEESKKTIKNPEEAKSPPKTTVRCLEAEV
notes: LYVE-1, mouse, endogenous in tissue lysates; source: endogenous, lysates of freshly resected mouse ear skin, lymph node, liver and lung
Consider B3, for which the “homodimer:monomer ratio” value in data set [3] was ~2 homodimer:monomer. The “stoichiometry N” value in data set [4] was 2.

B4: hLYVE-1 Δ238 His10 (soluble full ectodomain, wild type) (domain or fragment, human, UniProt Q9Y5Y7 20-238, looked up)
chain: LVQGSLRAEELSIQVSCRIMGITLVSKKANQQLNFTEAKEACRLLGLSLAGKDQVETALKASFETCSYGWVGDGFVVISRISPNPKCGKNGVGVLIWKVPVSRQFAAYCYNSSDTWTNSCIPEIITTKDPIFNTQTATQTTEFIVSDSTYSVASPYSTIPAPTTTPPAPASTSIPRRKKLICVTEVFMETSTMSTETEPFVENKAAFKNEAAGFGGVPT
notes: signal peptide in the construct (forward primer begins 14 nt before the start ATG); LYVE-1, human, full-length extracellular domain terminating after residue number 238; secreted from CHO cells; Recovered as a mixture of monomers and disulfide-linked dimers; the homodimer was separated by multiple rounds of size exclusion chromatography; also called soluble hLYVE-1 ectodomain; WT LYVE-1 His10; …
Regarding B4, the binding result in data set [5] is recorded as “binds”.
